In PMC10897456, “B. subtilis MutS2 splits stalled ribosomes into subunits without mRNA cleavage” (The EMBO Journal, 2023):

Tests used:
Assay in all cases: cryo-EM structure; reconstituted complex: His-MutS2 WT in tenfold excess over purified B. subtilis disomes, 50 mM HEPES/KOH pH 7.5, 75 mM KOAc, 5 mM Mg(OAc)2, 45 mM NH4Cl, 4 mM MgCl2, 1 mM MnCl2, 1 mM AMP-PNP, 30 °C for 1 h; 3.8 Å
Settings in all cases: both partners purified
ribosomal protein uS11 = ribosomal protein uS11 (B. subtilis (endogenous in B. subtilis …, UniProt P04969 1-131))
ribosomal protein uS10 = ribosomal protein uS10 (B. subtilis (endogenous in B. subtilis …, UniProt P21471 1-102))
ribosomal protein uS7 = ribosomal protein uS7 (B. subtilis (endogenous in B. subtilis …, UniProt P21469 1-156))

Measured: binding result

B1: His-MutS2 WT (recombinant B. subtilis MutS2) (natural protein)
chain: MQQKVLSALEFHKVKEQVIGHAASSLGKEMLLELKPSASIDEIKKQLDEVDEASDIIRLRGQAPFGGLVDIRGALRRAEIGSVLSPSEFTEISGLLYAVKQMKHFITQMAEDGVDIPLIHQHAEQLITLSDLERDINSCIDDHGEVLDHASETLRGIRTQLRTLESRVRDRLESMLRSSSASKMLSDTIVTIRNDRFVIPVKQEYRSSYGGIVHDTSSSGATLFIEPQAIVDMNNSLQQAKVKEKQEIERILRVLTEKTAEYTEELFLDLQVLQTLDFIFAKARYAKAVKATKPIMNDTGFIRLKKARHPLLPPDQVVANDIELGRDFSTIVITGPNTGGKTVTLKTLGLLTLMAQSGLHIPADEGSEAAVFEHVFADIGDEQSIEQSLSTFSSHMVNIVGILEQVNENSLVLFDELGAGTDPQEGAALAMSILDDVHRTNARVLATTHYPELKAYGYNREGVMNASVEFDIETLSPTYKLLIGVPGRSNAFEISKRLGLPDHIIGQAKSEMTAEHNEVDTMIASLEQSKKRAEEELSETESIRKEAEKLHKELQQQIIELNSKKDKMLEEAEQQAAEKVKAAMKEAEDIIHELRTIKEEHKSFKDHELINAKKRLEGAMPAFEKSKKPEKPKTQKRDFKPGDEVKVLTFGQKGTLLEKTGGNEWNVQIGILKMKVKEKDLEFIKSAPEPKKEKMITAVKGKDYHVSLELDLRGERYENALSRVEKYLDDAVLAGYPRVSIIHGKGTGALRKGVQDLLKNHRSVKSSRFGEAGEGGSGVTVVELK
notes: MutS2 of B. subtilis (87 kD); core/lever, clamp, P-loop ABC ATPase, KOW and SMR domains; SMR domain printed as residues 710-785; SEC: oligomer, consistent with a dimer or tetramer; the text calls it a homodimer on the disome; Only the KOW and SMR domains are resolved in the structure (AlphaFold2 models fitted as rigid bodies); also called RqcU; source: E. coli BL21(DE3), pET24d(+), purified …
binds: ribosomal protein uS11 | ribosomal protein uS10 | ribosomal protein uS7
